Data set [1] is described as follows: folding stability dG unfold from trypsin proteolysis; higher = more stable. Here is the method:
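Folding stability of de novo designed mini-proteins (<80 aa, no Cys; designed by TrROS, TrMRF, ProteinMPNN and the joint model) was measured by cDNA display proteolysis with trypsin and chymotrypsin. Each protease was used at 11 concentrations in a threefold dilution series plus a no-protease condition. K50 was inferred by Bayesian fitting of sequencing counts, and dG unfold was derived against a sequence-predicted unfolded-state K50 (Tsuboyama et al. method). Sequences shown include variable-length N-terminal GS-type padding (SAGGSAGG...) inside a display construct carrying a PA tag. Rows were kept only if the AF2 dimer inter-PAE was >15, to exclude likely homo-oligomers.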

Data set [2] can be described thus: folding stability dG unfold (combined trypsin and chymotrypsin); higher = more stable. The procedure, abridged:
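K50 was inferred by Bayesian fitting of sequencing counts obtained after protease digestion of designed mini-proteins. Unfolding free energy was derived by comparison with a sequence-predicted unfolded-state K50 and a shared folded-state K50, for each protease or both combined. The mini-proteins were under 80 residues, had no cysteine, were carried in a PA-tagged cDNA display construct, and were kept only if AlphaFold2 dimer inter-PAE exceeded 15.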

± gives the half width of the 95% confidence interval.

Consider “SAGGSAGGSAGGSERHTAVLVDTGFRISPAPEEGGLRLEAGASLTIREVPEDALKEVLGSAGGSAGGSAGGS [r4_274_TrMRF]”, for which the “folding stability dG unfold” value in data set [1] is -0.398 ± 0.26 kcal/mol; in data set [2] it was less than -1 kcal/mol.

As to “SAGGSAGGSAGGSKKTAVLKVGDKWIPLEIDEDKVTLIYPDGKKEEISLEDIPENTISDASAGGSAGGSAGG [r7_748_TrMRF]”, the “folding stability dG unfold” value in data set [1] is 0.0901 ± 0.064 kcal/mol; in data set [2], -0.212 ± 0.11 kcal/mol.

For “SAGGSAGGSAGGSMAIPVYLKIENKVLTSLDELKEAVESGKPIEIERIEAFDLSPDEEVSAGGSAGGSAGGS [r4_479_TrMRF]”, the “folding stability dG unfold” value in data set [1] is -0.74 ± 0.35 kcal/mol; in data set [2], less than -1 kcal/mol.

With “SAGGSAGGSAGGSMPLRKVTVSRPDSTLEFEFPESVPEEEVKEKLKKEYPNAEVKVEPESAGGSAGGSAGGS [r4_155_JUSTAS]”, the “folding stability dG unfold” value is -0.633 ± 0.25 kcal/mol in data set [1] and less than -1 kcal/mol in data set [2].

Regarding “SAGGSAGGSAGGSMVLYERVPASELPPGKGETLLIREVTVEKLPGNRIILNEGVKVIPPSAGGSAGGSAGGS [r4_444_JUSTAS]”, the “folding stability dG unfold” value in data set [1] was -0.186 ± 0.15 kcal/mol; in data set [2], -0.831 ± 0.24 kcal/mol.

With “SAGGSAGGSAGGVPEEEIRERVEAAGLTAPDAEVVYETPENITVRVTVPPTGLVFERLESAGGSAGGSAGGS [r10_604_JUSTAS]”, the “folding stability dG unfold” value was 0.0893 ± 0.048 kcal/mol in data set [1] and -0.367 ± 0.1 kcal/mol in data set [2].

Consider “SAGGSAGGSAGGVRIRPPNGEWIRIDNAPDDEDIKDKLKKHPNVKPEIDPDTNEAWIPVSAGGSAGGSAGGS [r10_792_TrROS]”, for which the results for the “folding stability dG unfold” value in data set [1] and in data set [2] were -1.09 ± 0.42 kcal/mol and less than -1 kcal/mol, respectively.

Take “SAGGSAGGSAGGYKVKVYNPENGKPQEIPLPPNDIPELLDKLPNGPWWIRVKDPDRWIPLSAGGSAGGSAGG [r7_188_TrROS]”: the results for the “folding stability dG unfold” value in data set [1] and in data set [2] were -1.05 ± 0.51 kcal/mol and -0.562 ± 0.57 kcal/mol, respectively.

Turning to “SAGGSAGGSAGIPNLIAYEVSKEGKPVKIIVKSPNGEEYEITVSPNESIPENIEILKVEVGSAGGSAGGSAG [r3_421_TrMRF]”, the figures for the “folding stability dG unfold” value in data set [1] and in data set [2] were 0.685 ± 0.034 kcal/mol and -0.0441 ± 0.15 kcal/mol, respectively.

With “SAGGSAGGSAGITIEFPEEENNFRVENPNDGKKHEIPGTPDEIKEYALDKFPGRPIKIHPSAGGSAGGSAGG [r11_614_TrROS]”, the “folding stability dG unfold” value in data set [1] is 0.11 ± 0.079 kcal/mol; in data set [2], -0.511 ± 0.43 kcal/mol.

Take “SAGGSAGGSAGKIKAYAEKDVPAEIVAKAIEEEIREAFPDNPEEIKGIEVEPDGFLSETISAGGSAGGSAGG [r17_43_TrMRF]”: the entries for the “folding stability dG unfold” value in data set [1] and in data set [2] were -0.636 ± 0.15 kcal/mol and less than -1 kcal/mol, respectively.

With “SAGGSAGGSAGKVKVKVESNPDGTLIIAEEFEDFVVIVELKVDDDGIHFHPHPVVLSKELSAGGSAGGSAGG [r17_72_TrMRF]”, the “folding stability dG unfold” value was 0.0484 ± 0.1 kcal/mol in data set [1] and -0.695 ± 0.38 kcal/mol in data set [2].

For “SAGGSAGGSAGLVKLKDKNGKLITLEVKEVEVVEVKEVTLKPKPKPKKTLKLSEEELKKLSAGGSAGGSAGG [r17_484_TrROS_Hall]”, the “folding stability dG unfold” value in data set [1] is -0.143 ± 0.075 kcal/mol; in data set [2], -0.494 ± 0.25 kcal/mol.

As to “SAGGSAGGSAGMEIEVEVDPSTNTVKLTKKIGGKWVEATVTRTPGTGTITLPDGSTLKLTSAGGSAGGSAGG [r11_395_JUSTAS]”, the “folding stability dG unfold” value in data set [1] is -0.709 ± 0.47 kcal/mol; in data set [2], less than -1 kcal/mol.

In the case of “SAGGSAGGSAGMEIPEDWTVVEESEVPDERLVTVHNPKTGELYVVTQPPATGEETVERYLSAGGSAGGSAGG [r11_896_JUSTAS]”, the “folding stability dG unfold” value in data set [1] was 0.0248 ± 0.2 kcal/mol; in data set [2], less than -1 kcal/mol.

“SAGGSAGGSAGMILTEEVTVAVPTLSTADGTRHTTTVPELVVVELKLPPVPPEAVEKLLASAGGSAGGSAGG [r11_318_JUSTAS]”: the “folding stability dG unfold” value in data set [1] was -0.0441 ± 0.019 kcal/mol; in data set [2] it was -0.887 ± 0.16 kcal/mol.

As to “SAGGSAGGSAGMMEEKLIKEYEDPNGGKKYTIKLVKDPKTGKEKIVKETIEPNKKTTEIKNLSAGGSAGGSA [r18_444_JUSTAS]”, the “folding stability dG unfold” value is -0.36 ± 0.21 kcal/mol in data set [1] and -0.365 ± 0.62 kcal/mol in data set [2].

For the sequence “SAGGSAGGSAGNMKEVEFTIPGAPPDELADNLPPGIKDVEIERNPEARENGGYSIKAYVDSAGGSAGGSAGG [r11_1002_TrROS]”, the entries for the “folding stability dG unfold” value in data set [1] and in data set [2] were -0.0749 ± 0.17 kcal/mol and less than -1 kcal/mol, respectively.

Turning to “SAGGSAGGSAGNVEEIADQLKPNGYKISTVEPTDDQVEVEIYNPESKEPRKFRIPPNQPISAGGSAGGSAGG [r11_428_TrROS]”, the “folding stability dG unfold” value in data set [1] is -0.414 ± 0.24 kcal/mol; in data set [2], less than -1 kcal/mol.

In the case of “SAGGSAGGSAGPITITDIPSEEEAAALIAARPGVEVERKPVTLSEEERWEVTLTLPGEAASAGGSAGGSAGG [r17_542_JUSTAS]”, the entries for the “folding stability dG unfold” value in data set [1] and in data set [2] were 0.157 ± 0.058 kcal/mol and -0.722 ± 0.18 kcal/mol, respectively.

“SAGGSAGGSAGPKWKQITIPMEPGQSVNEIADEIKDELGPGKRVHVSMHENGWMTIYVRKSAGGSAGGSAGG [r17_20_TrROS]”: the “folding stability dG unfold” value is -0.484 ± 0.23 kcal/mol in data set [1] and less than -1 kcal/mol in data set [2].

The values above are taken from the supplement of paper PMC12764529.
